The text below walks through data of the DeepSol protein solubility set.

A short description of this data set: soluble on expression in E. coli; label from the status in PepcDB or PDB records.
On to “MPSNSTTGAQKCSRKVHSLKFKLEAIEYASKFSKTKAARDLKVSRQCIQDWVAQKTKIESQLKSTNKTAPKRLEGGGRPVQRETVDESVLRWFRDQREKKFRVSRNLIRQKAKEICGEDDFKASTGWLQKFMRRHHLSTRRATTTCQKEPDEFAKKIVDYVLFVEKMRLQNKYTDTHIFAADETAVYLDFSNSLTLNEKGAREVGKTNTLFFYFSHPMMKRCLILFQVPVKTTGHEKMHVTVLLTARADGYKCRPYVLLPRTRPDKEIAARFKNSLQLSWCNRTFFNDEVTEDYLNTIIGPPFFGKRLLAWDAFRCHISDATKRVLKNLKVDTAVVPGGCTKFVQAPDVYWNSPFKASIRRSYEDWMVHGQKSFTKSNNMRPPSMLQYLEWIENAWNDLPKDLILKSFKGCALTIATDGSEDNQVHCFAPNGSIPSGLDLLNSTRIENSLVDLVQDIGIDESQEEGNESDNSIISVG”, for which the “soluble on expression in E. coli” value was “not soluble”. Next, “MSLTKAQDHDAAVLYGYFRSSASYRVRIALNLKNIIVAQRYVHLRNGEQNLEAFRWINPAGMVPYWSEGEFNLGQSLAIIEYLDETHPEPPLLPKDPKARAIVREIAYAVACDIHPIGNLRILKRLTELGVDEVDRARWSKEWVEQGFAAIEARLAQTPGPFAYGDRPTLADICIVPQIFNARRFDADLAPFERIRQIEAEAMKLDAFVAAEPGRQPDAEGHHHHHH”: “soluble”; “GPGGALPTCPACHKITPRTEAPVSSVSNSLENALHTSAHSTEESLPKRPLGKHSKVSVEKIDLKGLSHTKNDRNVECSFEVLWSDSSITSVTKSSSEVTEFISKLCQLYPEENLEKLIPCLAGPDAFYVERNHVDLDSGLRYLASLPSHVLKNDHVRRFLSTSSPPQQLQSPSPGNPSLSKVGTVMGVSGRPVCGVAGIPSSQSGAQHHGQHPAGSAAPLPHCSHAGSAGSALAYRTQMDTSPAILMPSSLQTPQTQEQNGILDWLRKLRLHKYYPVFKQLSMEKFLSLTEEDLNKFESLTMGAKKKLKTQLELEKEKSERRCLNPSAPPLVTSSGVARVPPTSHVGPVQSGRGSHAAELRVEVEQPHHQLPREGSSSEYSSSSSSPMGVQAREESSDSAEENDRRVEIHLESSDKEKPVMLLNHFTSSSARPTAQVLPVQNEASSNPSGHHPLPPQMLSAASHITPIRMLNSVHKPERGSADMKLLSSSVHSLLSLEERNKGSGPRSSMKVDKSFGSAMMDVLPASAPHQPVQVLSGLSESSSMSPTVSFGPRTKVVHASTLDRVLKTAQQPALVVETSTAATGTPSTVLHAARPPIKLLLSSSVPADSAISGQTSCPNNVQISVPPAIINPRTALYTANTKVAFSAMSSMPVGPLQGGFCANSNTASPSSHPSTSFANMATLPSCPAPSSSPALSSVPESSFYSSSGGGGSTGNIPASNPNHHHHHHHQQPPAPPQPAPPPPGCIVCTSCGCSGSCGSSGLTVSYANYFQHPFSGPSVFTFPFLPFSPMCSSGYVSAQQYGGGSTFPVVHAPYSSSGTPDPVLSGQSTFAVPPMQNFMAGTAGVYQTQGLVGSSNGSSHKKSGNLSCYNCGATGHRAQDCKQPSMDFNRPGTFRLKYAPPAESLDSTD”: “soluble”; “MGSDKIHHHHHHMLKSIKSSGVTAVLDHDGFNKRIRVVRYDGAIEKALPDIVAAAKEENAEKIIVYAKQHDEPILAKQLFAPEGYLKGYYLGHSACVMVRYLSESRRQTDSYTEEQEIIEAIYRTAPRLRNDSTPVFTMRKAETNDMYQLSMLYKKVFRTYPTPVFDPAYIEKTMNANTVYYIMLDHDRLISAASAEINPELGHAEITDCAVLPEYRGHSLTSFLIEALEKEMAGEDIVHVFSLARASSFGMNAVLYHSGYQYGGRLINNCFIAEGLENMNIWCKQL”: “not soluble”. In the case of “MRTLLITGPGGSGRTTVAAATALRASRTGTRTLVLSADRTDTLGAALGVPTGGAPVEAAPGLTAWRPDAADRFRADLTAFQDRAATALDFLGAARLDAEELTPLPGAEELALLRALRDAALSEAYDLLVVDLPPAPQALALLALPEELRRYLRRLLPPERQAARALRPVLGRLAGVPMPADWLYETAARWDVELAAVEAVVEDRATTVRLVAEPGPAGADAVRAAATGFALRAVRIDTLIANRLLPEEADDAWSAGLAAQQRKFLEEWRGEYRLHELPHLGHDPRGADDLAALAVPGVNDAPGPVEWSVADRLADDGVLVWHIPLPGAIRDELDLLRRGDELVVTAGQFRRIVPLPSALRRCTVAGAALREGELRIRFAPDPDLWPRERLEHHHHHH” it was “soluble”. Next, “MGSDKIHHHHHHMTFVKKALSPDEYGEVLFQHDWMRGEPSDVVCELLAKSERLFFRQDDVLFREGDKMQHCLLVETGKLQAFRHTYGGDEKIFGQFERGEFVAIAAVFMDHGRFPMNIRALSDGHTLMIPRQDIHQFCLQRPELALRLLNYLGKKLYSTINQIDWLTSSSAPQRLADYLLRQHHIQQTQHLTLPVSRGQLATSLGMRGETLSRLMSDWKRQGHITYRGHQVELCDLNYLKELAAEARRTF”: “not soluble”; “MGSDKIHHHHHHMLHRRKTYTIRPERLQEFTEFFHTYLYPLQISHGARLVGRWVNEAEDEVIAIWEYRDREHYEQVDRDVRGSTLRREAMKKRARLGKNLYIKSTEDFLTATGVYAPPRAIVSVTAYITNEAGEVLLVRNLHRGDTYEMPGGQVENHESILDAVKREVKEETGADVTIEGITGIYQNVSSHVLCVAFRGTYTGGELRPQEGETAEVGFFDLNRENIDTYIKREHFQLRTLDAMDPHYFPHALYKVRPYELISRYDGNAPSALSGQN”: “not soluble”; “MGSDKIHHHHHHMMIKVFPKLRKQIWGSYRLGEMFGSNEKIGEVWLLSGHPLFITEAEGGLDLNEDMEKLIGKKLPRFPLLVKLISAEDWLSVQVHPNDDEAQELENEPWGKTEAWYFVEKGQIAIGEDPEKVKRALEDNSWDEALKKVEIEPGTFVFLPAGTVHALGPGGLLVEVQQASDLTYRVYDWGRGRELHIEKAFKVMKERKVEDLIVENFENFECEYFRIEKLERGKLEGFCAIVILENGVLDNRQVSPFETFIVPKGEKAELRATALVMRIGKFFEQWGDKK”: “not soluble”.

Consider “MGSSHHHHHHGKTIFVIVPTNEEQVAFLEALAKQDELNFDWQNPPTEPGQPVVILIPSDMVEWFLEMLKAKGIPFTVYVEEGGSENLYFQGGGGGGSECNISADERMDVPSEDYDVSIMIKAIHEVQDVLTSRQFATFSEVDTEIGKTLKRYEAFGDGFERFHVNLTKDALQSNDLQKSLKDMDKRCQDRLRDCASSQKDQINDILPFIRNTSSILVHGSGNLLALTIACSIQEHEGVRFYICEGRPARKGYPHGSGEQLLEKVLATPEGMRLKDKLHKYCTIVPDSGVSSVMNSVDFVIMGAYCVTEHGGLVHSTGSLQIAIVAAFRNVPCYVLCETFKFAHIFPLSTDDLKQPENGAGEVVPLVEFVPPSMITLIFSEQGIMPPSAVADEMFRFHTAPSAPGKRR”, for which the “soluble on expression in E. coli” value was “not soluble”. As to “MLSVAGHRFASLATTPVLRMGLARCFSSVTGPFQCPPLPYVKNALEPHMSAETLTYHHDKHHQTYVDTLNSIAAENSTIASKTLEQIIKTETGKPFNQAAQVYNHTFFFNNLAPNGGGEPTGKIAELITRDFGSFEKFKEDFSAAAVGHFGSGWVWLIADDGKLKIVQGHDAGNPIRESKTPLMNIDVWEHAYYIDYRNARAQYVKNYWNLVNWDFVNDNVAKAGI”, the “soluble on expression in E. coli” value is reported as “soluble”. In the case of “MKFIIEALKRVRERRPLVHNITNFVVMNTTANALLALGASPVMAHAEEELEEMIRLADAVVINIGTLDSGWRRSMVKATEIANELGKPIVLDPVGAGATKFRTRVSLEILSRGVDVLKGNFGEISALLGEEGKTRGVDSLEYGEEEAKKLTMNAAREFNTTVAVTGAVDYVSDGRRTFAVYNGHELLGRVTGTGCMVAALTGAFVAVTEPLKATTSALVTFGIAAEKAYEEAKYPGSFHVKLYDWLYRINENVIRTYAKVREVEL” it was “soluble”.

Turning to MSLSVIDLLKQRVQSAGKKPVIIFPEG, the “soluble on expression in E. coli” value was “not soluble”.

On to “MGSDKIHHHHHHMTTATHPNDALFAGEKSFPVLAACEHFAGSEKLIGKAMDLQVEYGPVFDVTCDCEDGAAAGQEREHAEMVARMIASDRNVHGRAGARIHDPSHPAWRQDVDIIVNGAGGRLAYITVPKATNSGQVAEVIRYIGDVAKRAGLDKPVPVHVLIETHGALRDVFQIAELPNIEVLDFGLMDFVSGHHGAIPAAAMRSPGQFEHALLVRAKADMVAAALANGIVPAHNVCLNLKDAEVIASDACRARNEFGFLRMWSIYPAQIQPIVNAMRPDFTEVEDAAGILVAAQDADWGPIQYKGELHDRATYRYFWEVLQKAKVTGMAVPAEAERRFFVN”, for which the “soluble on expression in E. coli” value was “not soluble”. In the case of “MGSDKIHHHHHHMTNKYEEFKTYLKKIGSGEFTGKSLTREETKSALMLMLKEEASAAQIGGFMIAHRIRRPIPEELAGMIDAYIELGPKIQSPSNQRQPIFFGMPFDGRKKTAPIYPLTTLLLLTQKQPVILHGGSRMPVKYGVTHNELFQALGINLTGLSIEQLQSFFNHNYLALIHQPDHFPLAENLIPYRDQIGKRPPLASMELIWTCHQGSHLHISGYVHSPTEERHWKTLELMGEQNVITIKGLEGGIDLSISRSSTIGQYKNQHGTRTVFHPKDYECSGKDIEWSDITEWKKFALQALNGEGPLTKALEWNAGIYFFYAGISSDIKEGINKAKEVINSGFALKQLEKLIHWSDENIDS” it was “not soluble”; in that of “MGHHHHHHSHMLSRWDDSQRFLSDHPYLVCEETAKYLILWCFHLEAEKKGALMEQIAHQAVVMQFIMEMAKNCNVDPRGCFRLFFQKAKAEEEGYFEAFKNELEAFKSRVRLYSQSQSFQPMTVQNHVPHSGVGSIGLLESLPQNPDYLQYSISTALCSLNSVVHKEDDEPKMMDTV”, “not soluble”; in that of “MNVINETANVLKLETGSVTSAKGFSAVGIHTGVKRKRKDLGAIVCEVPASSAAVYTLNKVQAAPLKVTQESIAVEGKLQAMIVNSGIANACTGKRGLDDAYTMRAVGAETFHIPEHYVAVTSTGVIGEFLPMDVITNGIRQLKPEATIEGAHAFNEAILTTDTVEKHTCYQTIVNGKTVTVGGVAKGSGMIHPNMATMLSFVTTDANIDHGHLQGALSAITNETFNRITVDGDTSTNDMVVVMASGLAENEALTPEHPDWANFYKALQLACEDLAKQIARDGEGATKLIEVEVTGAANDQEAGMVAKQIVGSDLVKTAIYGADANWGRIICAIGYSGCEVNQETIDIAIGPIVTLKQSEPTGFSEEEATAYLKEADPVKISVNLHIGNGTGKAWGCDLTYDYVRINAGYRTLEHHHHHH”, “not soluble”. In the case of “MKPKSGAVRRLEKNTMNFVLSDVADAEAEKAIRDPLVAYNLARFGESDKRDLNITIRNDDNSVTGGLVGHTARGWLYVQLLFVPEAMRGQGIAPKLLAMAEEEARKRGCMGAYIDTMNPDALRTYERYGFTKIGSLGPLSSGQSITWLEKRF”, the “soluble on expression in E. coli” value is given as “soluble”. Next, “MSLATIKDIARRAGVIPSTVNRTLKDNPSISKETKAKVRAAMDELGYVPNSAAQMLATGLTHSLGVVLPPLTDRENISQPFYMEIITAINEEASSNSQVVSIATGATLEELVKQVELMHRQKRADGFIILYSETNDPVKDYLLKEKVPSVVVGAAVDNNDKVTYIDNDNKELGQEAVNFLRAKGHQKIGFVTDDLFGQVGQEHYQGYIEATNEFNLETYPELVFSSRVIDSLIESLQSYQLTALIVKDDLIALRFIHWLNNQGIRIPEDYAIISFNNSIFAEIMYPFLTTYDINIKELGKESVQRLLDLLKNPQTKAQKITIPFRLIERESVSMGEGHHHHHH”: “soluble”. Next, “EHGPVTFVPDTPIESRARLSLPKQLVLRQSIVGAEVGVWTGETIPVRTCFGPLIGQQSHSMEVAEWTDKAVNHIWKIYHNGVLEFCIITTDENECNWMMFVRKARNREEQNLVAYPHDGKIFFCTSQDIPPENELLFYYSRDYAQQIGVPE”: “soluble”.
